Values quoted from earlier work, collected in PMC3288267.

Legend:
[1] = molecular target: transferrin receptor 1 (TfR), immobilised on SPR chip (UniProt P02786); assay: Surface plasmon resonance, kinetic; conditions: pH endosomal pH (numeric value not given)
[2] = molecular target: transferrin receptor 1 (TfR), immobilised on SPR chip (UniProt P02786); assay: Surface plasmon resonance, equilibrium binding; conditions: pH endosomal pH (numeric value not given)

Chain of UniProt P02786 (P02786 whole entry): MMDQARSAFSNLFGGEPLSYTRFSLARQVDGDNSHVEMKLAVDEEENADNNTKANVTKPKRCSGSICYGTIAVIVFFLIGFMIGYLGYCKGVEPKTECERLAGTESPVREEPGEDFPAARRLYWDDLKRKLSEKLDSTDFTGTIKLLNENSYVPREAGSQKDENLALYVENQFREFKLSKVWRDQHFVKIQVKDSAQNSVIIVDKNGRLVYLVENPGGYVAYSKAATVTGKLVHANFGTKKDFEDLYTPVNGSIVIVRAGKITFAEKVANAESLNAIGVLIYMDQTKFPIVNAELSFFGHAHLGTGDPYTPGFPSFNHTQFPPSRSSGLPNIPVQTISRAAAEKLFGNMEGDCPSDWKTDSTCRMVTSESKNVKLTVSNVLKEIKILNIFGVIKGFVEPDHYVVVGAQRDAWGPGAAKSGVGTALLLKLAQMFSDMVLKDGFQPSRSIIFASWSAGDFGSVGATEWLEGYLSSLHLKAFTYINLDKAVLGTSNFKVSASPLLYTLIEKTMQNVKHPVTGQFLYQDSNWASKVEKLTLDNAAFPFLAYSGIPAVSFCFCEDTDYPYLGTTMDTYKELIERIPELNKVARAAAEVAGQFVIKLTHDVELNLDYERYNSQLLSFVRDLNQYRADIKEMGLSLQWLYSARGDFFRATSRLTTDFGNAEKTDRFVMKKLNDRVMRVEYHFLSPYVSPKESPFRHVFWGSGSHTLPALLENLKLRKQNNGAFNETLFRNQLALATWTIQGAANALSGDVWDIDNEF

KD (from kd,end/ka,end) [1]: 1.3 nM
ka,end (association rate constant; kend,a in Table 1) [1]: 4.4 ± 0.4 × 10^7 min^−1 M^−1
kd,end (dissociation rate constant; kend,d in Table 1) [1]: 0.000933 ± 0.0002 s⁻¹
KD (equilibrium SPR) [2]: <15 nM
Substance: apo-transferrin (iron-free), SPR analyte
